Assay results reported in US8865867.

Target: HIV-1 consensus subtype C envelope (HIV-1)
Assay: cell-based or functional assay

Q: Which IC50(nM), inhibition of infection of TZM-bl cells by pseudotyped HIV-1 does the source give for BanLec H84Y here?
A: The IC50(nM), inhibition of infection of TZM-bl cells by pseudotyped HIV-1 was 0.29 nM.

Q: What does the source list for BanLec H84T?
A: Fold Decrease in Anti-HIV activity (IC50 of mutant / IC50 of wild-type BanLec): 23 fold; IC50(nM), inhibition of infection of TZM-bl cells by pseudotyped HIV-1: 7 nM

Q: Which Fold Decrease in Anti-HIV activity (IC50 of mutant / IC50 of wild-type BanLec) does the source give for BanLec H84S here?
A: The Fold Decrease in Anti-HIV activity (IC50 of mutant / IC50 of wild-type BanLec) was 4.1 fold.

Q: And the IC50(nM), inhibition of infection of TZM-bl cells by pseudotyped HIV-1?
A: Its IC50(nM), inhibition of infection of TZM-bl cells by pseudotyped HIV-1 is 1.6 nM.

Q: Which Fold Decrease in Anti-HIV activity (IC50 of mutant / IC50 of wild-type BanLec) does the source give for BanLec H84A here?
A: Its Fold Decrease in Anti-HIV activity (IC50 of mutant / IC50 of wild-type BanLec) is 2.5 fold.

Q: What about the IC50(nM), inhibition of infection of TZM-bl cells by pseudotyped HIV-1 of the same substance?
A: Its IC50(nM), inhibition of infection of TZM-bl cells by pseudotyped HIV-1 is 0.7 nM.

Q: With BanLec H84M as the substance, how does the Fold Decrease in Anti-HIV activity (IC50 of mutant / IC50 of wild-type BanLec) read?
A: The Fold Decrease in Anti-HIV activity (IC50 of mutant / IC50 of wild-type BanLec) was 21 fold.

Q: And the IC50(nM), inhibition of infection of TZM-bl cells by pseudotyped HIV-1?
A: The IC50(nM), inhibition of infection of TZM-bl cells by pseudotyped HIV-1 was 7.7 nM.

Target: HIV-1 envelope (isolate used on monocyte-derived macrophages, not named) (HIV-1)
Assay: cell-based or functional assay

Q: How did the IC50 of inhibition of HIV-1 replication in MDM, 7 days turn out when BanLec was run?
A: Its IC50 of inhibition of HIV-1 replication in MDM, 7 days is 9.72 nM.
